In test [1] the target is T1, PEX7 (in vitro synthesized) (human, UniProt O00628 1-323, unlabeled in the native-PAGE analyses; [35S]methionine label in the import/export assays).
T1 sequence (looked up): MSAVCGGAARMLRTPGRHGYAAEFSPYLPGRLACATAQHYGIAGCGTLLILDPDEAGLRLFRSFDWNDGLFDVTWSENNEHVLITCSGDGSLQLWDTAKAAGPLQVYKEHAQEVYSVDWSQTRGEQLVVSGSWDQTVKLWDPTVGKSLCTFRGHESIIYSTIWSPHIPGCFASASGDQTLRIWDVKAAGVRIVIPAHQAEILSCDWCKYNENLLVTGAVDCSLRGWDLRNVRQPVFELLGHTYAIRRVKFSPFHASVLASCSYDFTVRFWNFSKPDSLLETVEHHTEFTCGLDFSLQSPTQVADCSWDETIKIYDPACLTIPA
Kind of test: cell-based or functional assay.

Test [2] addresses T1, PEX7 (in vitro synthesized). Kind of test: native gel or EMSA; chase of the pre-assembled trimeric ΔC1PEX5L-PEX7-35S-prePHYH complex with excess recombinant prePHYH (100 ng) at 23 °C, aliquots over 8 h; band intensity against time. The note with it: partners not purified.

This note sets out measurements from publication PMC4490337, “Revisiting the intraperoxisomal pathway of mammalian PEX7” (Scientific Reports, 2015).

B1: ΔC1PEX5L, recombinant protein comprising amino acid residues 1-324 of the large isoform of human PEX5 (domain or fragment)
chain: not shown
As for B1, the “amount of 35S-labeled PEX7 exported from peroxisomes in 15 min after pre-incubation with ΔC1PEX5L, against pre-incubation with export-incompetent ΔC1PEX5L(C11A)” value in test [1] is about 2 fold.

B2: radiolabeled pre-phytanoyl-CoA hydroxylase (35S-prePHYH) (natural protein, human, UniProt O14832 1-338, looked up)
chain: MEQLRAAARLQIVLGHLGRPSAGAVVAHPTSGTISSASFHPQQFQYTLDNNVLTLEQRKFYEENGFLVIKNLVPDADIQRFRNEFEKICRKEVKPLGLTVMRDVTISKSEYAPSEKMITKVQDFQEDKELFRYCTLPEILKYVECFTGPNIMAMHTMLINKPPDSGKKTSRHPLHQDLHYFPFRPSDLIVCAWTAMEHISRNNGCLVVLPGTHKGSLKPHDYPKWEGGVNKMFHGIQDYEENKARVHLVMEKGDTVFFHPLLIHGSGQNKTQGFRKAISCHFASADCHYIDVKGTSQENIEKEVVGIAHKFFGAENSVNLKDIWMFRARLVKGERTNL
modifications: [35S]methionine label
notes: human phytanoyl-CoA hydroxylase, precursor form with the PTS2 (prePHYH); cDNA amplified with primers from the start to the stop codon and cloned into pGEM4 (pGEM4-prePHYH); also called radiolabeled prePHYH; source: in vitro translated (TNT T7 quick coupled kit, rabbit reticulocyte lysate), not purified
On to B2, for which the “half-life of prePHYH in the trimeric complex (with m3)” value in test [2] was 3.06 h.
